Measured values reported in US12064464B2, “Plantaricin NC8 alpha beta markedly enhances the effects of antibiotics” (priority 2018, dated 2024).
Entries after “also recorded” stand apart in the source; their conditions may differ. Read-outs that look alike come from different tables or passages of the source.

Experiments:
[1] = tested on: S. aureus ATCC 29213 (MSSA); experiment: Broth microdilution MIC/MBC; type: cell-based, Staphylococcus aureus; settings: Table 1, peptide alone, 20 h; no unit in table, μM
Text: (§1) Staphylococcus aureus CCUG 35601 (MRSA, Culture Collection, University of Gothenburg) and Staphylococcus aureus ATCC 29213 (MSSA, ATCC, Manassas, VA). Staphylococcus epidermidis ATCC 12228 (ATCC, Manassas, VA), RP62A, N15 and 10 clinical isolates of Staphylococcus epidermidis that have previously been characterized. Isolated Escherichia coli, Enterococcus faecium (including VRE), Pseudomonas aeruginosa, Klebsiella pneumoniae, Enterobacter spp and Acinetobacter baumannii were obtained from Orebro University hospital. Isolated Streptococcus mutans, Streptococcus constellatus and Streptococcus anginosus were obtained from Malmo University. The bacteria were grown on Luria-Bertani (LB) agar plates, supplemented with 5% defibrinated horse blood, and incubated at 37° C. overnight. Single colonies were inoculated into 5 ml of LB broth and incubated on a shaker (300 rpm) at 37° C. overnight. The bacterial concentration was determined by viable count and adjusted to correlate with approximately 10^9 CFU/ml.
(§2) The broth microdilution method was used to determine minimal inhibitory concentration (MIC) and minimal bactericidal concentration (MBC). Two-fold serial dilutions of the peptides were used and the final concentrations ranged from 0.097-50 μM. […] The effect of bacteriocin-antibiotic combinations was accomplished by using the same concentration series of antibiotics with a constant concentration of PLNC8 αβ (3.1 μM) in all the wells. […] All experiments were repeated at least three times.

[2] = tested on: S. aureus CCUG 35601 (MRSA); experiment: Broth microdilution MIC/MBC; type: cell-based, Staphylococcus aureus
Text: as §1, §2

S. epidermidis 117 = experiment: Broth microdilution MIC/MBC; type: cell-based, Staphylococcus epidermidis; settings: Table 1, peptide alone, 20 h; no unit in table, μM
Text: as §1, §2

[3] = tested on: S. epidermidis 126 (hGISE strain); experiment: Broth microdilution MIC/MBC; type: cell-based, Staphylococcus epidermidis; settings: Table 3, peptide alone
Text: as §1, §2

S. epidermidis 154 = experiment: Broth microdilution MIC/MBC; type: cell-based, Staphylococcus epidermidis; settings: Table 3, peptide alone
Text: as §1, §2

[4] = tested on: S. epidermidis 157 (hGISE strain); experiment: Broth microdilution MIC/MBC; type: cell-based, Staphylococcus epidermidis; settings: Table 3, peptide alone
Text: as §1, §2

[5] = tested on: S. epidermidis ATCC 12228; experiment: Broth microdilution MIC/MBC; type: cell-based, Staphylococcus epidermidis
Text: as §1, §2

S. epidermidis N15 = experiment: Broth microdilution MIC/MBC; type: cell-based, Staphylococcus epidermidis; settings: Table 1, peptide alone, 20 h; no unit in table, μM
Text: as §1, §2

S. epidermidis RP62A = experiment: Broth microdilution MIC/MBC; type: cell-based, Staphylococcus epidermidis; settings: Table 1, peptide alone, 20 h; no unit in table, μM
Text: as §1, §2

Enterococcus faecium = experiment: Broth microdilution MIC/MBC; type: cell-based; settings: for MBC / MIC: peptide alone
Text: as §1, §2

Escherichia coli = experiment: Broth microdilution MIC/MBC; type: cell-based; settings: for MBC / MIC: peptide alone
Text: as §1, §2

Pseudomonas aeruginosa = experiment: Broth microdilution MIC/MBC; type: cell-based; settings: for MBC / MIC: P. aeruginosa, peptide alone
Text: as §1, §2

S. epidermidis [6] = experiment: Broth microdilution MIC/MBC, strain not named; type: cell-based, Staphylococcus epidermidis
Text: as §1, §2

[7] = tested on: keratinocytes infected by S. aureus; experiment: IncuCyte live-cell analysis of infected keratinocytes; type: cell-based, human
Description: HaCaT cells were cultured overnight in a 24-well plate at a seed-count of 2×10^5 cells per well. […] Co-stimulation was performed by infection of human keratinocytes, in the presence or absence of PLNC8 αβ, for 24 h, or infection of the cells for 1 h followed by addition of different concentrations of PLNC8 αβ for 6 h. Furthermore, infection of keratinocytes, with or without PLNC8 αβ, were monitored in real-time for 72 hours using IncuCyte Live-cell Analysis System. Bacterial load was quantified by measuring the fluorescence of green fluorescent protein (GFP) and cell viability was determined by measuring the fluorescent dye Draq7 that stains nuclei of dead cells.

S. epidermidis [8] = experiment: Aggregation and ATP release; type: cell-based, Staphylococcus epidermidis
Description: Aggregation and extracellular release of ATP were used to study the effects of PLNC8 αβ on the bacteria. ATP was registered using a luciferin/luciferase bioluminescence assay (Sigma, St. Louis, Mo, USA) in bacterial suspensions (2.5×10^8 CFU/ml). The bacteria were exposed to different concentrations of PLNC8 αβ, and real-time changes in light transmission and bioluminescence were recorded in a Chronolog lumi-aggregometer (Chrono-Log, Haverton, PA, USA) for 30 min. The levels of ATP were calculated based on the bioluminescence signals recorded in response to known concentrations of ATP.

[9] = Table 1, peptide alone, 20 h, no unit in table, μM
[10] = Vancomycin resistant E. faecium (VRE)
[11] = ESBL-producing E. coli, first isolate
[12] = ESBL-producing E. coli, second isolate
[13] = Non-ESBL E. coli, first isolate
[14] = Non-ESBL E. coli, second isolate

B1: PLNC8 αβ: two-peptide class IIb bacteriocin of L. plantarum NC8: PLNC8 α (SEQ ID NO 1) with PLNC8 β (SEQ ID NO 2) (peptide)
alpha: DLTTKLWSSWGYYLGKKARWNLKHPYVQF
beta: SVPTSVYTLGIKILWSAYKHRKTIEKSFNKGFYH
modifications: Lactobacillus plantarum NC8
[1]
  MBC: 25 µM
  MIC: 12.5 µM
[2]; [9]
  MBC: 25 µM
  MIC: 12.5 µM
[2]; Table 3, MRSA, peptide alone
  MBC: 25 µM
  MIC: 12.5 µM
S. epidermidis 117
  MBC: 12.5 µM
  MIC: 12.5 µM
[3]
  MBC: 50 µM
  MIC: 12.5 µM
S. epidermidis 154
  MBC: 12.5 µM
  MIC: 6.25 µM
[4]
  MBC: >50 µM
  MIC: 12.5 µM
[5]; 20 h
  molar ratio PLNC8 α to PLNC8 β for inhibiting and killing: molar ratio of 1:1 is most efficient at inhibiting and killing S. epidermidis; also recorded: ratios between 1:1 and 1:7 were also found to be effective
[5]; 20 h, listed as PLNC8αβ
  molar ratio PLNC8 α to PLNC8 β for inhibiting and killing: molar ratio of 1:1 is most efficient at inhibiting and killing S. epidermidis
[5]; [9]
  MBC: 12.5 µM
  MIC: 6.25 µM
[5]; Table 2, peptide alone
  MBC: 12.5 µM
  MIC: 6.25 µM
S. epidermidis N15
  MBC: 6.25 µM
  MIC: 6.25 µM
S. epidermidis RP62A
  MBC: 6.25 µM
  MIC: 6.25 µM
Enterococcus faecium
  effect of peptide alone on Enterococcus faecium: permeabilized and killed
  effect of sub-MIC peptide on antibiotics: significantly enhanced the effects of different antibiotics
Enterococcus faecium; E. faecium, first isolate
  MBC: 6.25 µM
  MIC: 6.25 µM
Enterococcus faecium; E. faecium, second isolate
  MBC: 6.25 µM
  MIC: 3.1 µM
Enterococcus faecium; [10]
  MBC: 25 µM
  MIC: 3.1 µM
Enterococcus faecium; listed as PLNC8αβ
  effect of peptide alone on Enterococcus faecium: both inhibitory and bactericidal
Escherichia coli
  effect of peptide alone on Escherichia coli: permeabilized and killed
  effect of sub-MIC peptide on antibiotics: significantly enhanced the effects of different antibiotics
Escherichia coli; [11]
  MBC: >50 µM
  MIC: >50 µM
Escherichia coli; [12]
  MBC: >50 µM
  MIC: >50 µM
Escherichia coli; [13]
  MBC: >50 µM
  MIC: >50 µM
Escherichia coli; [14]
  MBC: >50 µM
  MIC: >50 µM
Escherichia coli; listed as PLNC8αβ
  effect of peptide alone on Escherichia coli: did not affect the growth; also recorded: does not affect the growth
Pseudomonas aeruginosa
  effect of peptide alone on Pseudomonas aeruginosa: permeabilized and killed
  effect of sub-MIC peptide on antibiotics: enhanced the effects of different antibiotics
Pseudomonas aeruginosa; first isolate
  MBC: >50 µM
  MIC: >50 µM
Pseudomonas aeruginosa; second isolate
  MBC: >50 µM
  MIC: >50 µM
Pseudomonas aeruginosa; listed as PLNC8αβ
  effect of peptide alone on Pseudomonas aeruginosa: did not affect the growth; also recorded: does not affect the growth
S. epidermidis [6]; S. epidermidis, FIG. 15
  decrease of MIC and MBC of gentamicin by the peptides: 15-30 fold
  decrease of MIC and MBC of rifampicin by the peptides: 100 fold
  decrease of MIC and MBC of vancomycin by the peptides: 2 fold
S. epidermidis [6]; incl. hGISE, FIG. 14
  inhibition of S. epidermidis isolated from PJIs: effectively inhibits different strains of S. epidermidis isolated from PJIs, including S. epidermidis (hGISE)
[7]; S. aureus MOI:0.1
  bacterial growth (GFP fluorescence) prevented and delayed: up to 38 h
  time for which a single dose prevented bacterial growth and protected the cells: up to 42 h
[7]; S. aureus MOI:1
  time for which a single dose prevented bacterial growth and protected the cells: up to 32 h
S. epidermidis [8]
  release of ATP (bacterial lysis): dose-dependent release of ATP
S. epidermidis [8]; low concentrations
  aggregation of bacteria: bacteria aggregates when exposed to low concentrations
